Results reported in patent US20050153894 (published 2005).
Each block holds one binder with its values, some of them ahead of it. Square brackets hold non-standard residues; d marks the D form. Ends that are not written are not given here.

Tests used:
cyclin D1 = cyclin D1 (human, UniProt P24385); test: competition
cyclin A = cyclin A (human, UniProt P20248); test: competition, immobilised p21 peptide
Chain of cyclin A (P20248 whole entry): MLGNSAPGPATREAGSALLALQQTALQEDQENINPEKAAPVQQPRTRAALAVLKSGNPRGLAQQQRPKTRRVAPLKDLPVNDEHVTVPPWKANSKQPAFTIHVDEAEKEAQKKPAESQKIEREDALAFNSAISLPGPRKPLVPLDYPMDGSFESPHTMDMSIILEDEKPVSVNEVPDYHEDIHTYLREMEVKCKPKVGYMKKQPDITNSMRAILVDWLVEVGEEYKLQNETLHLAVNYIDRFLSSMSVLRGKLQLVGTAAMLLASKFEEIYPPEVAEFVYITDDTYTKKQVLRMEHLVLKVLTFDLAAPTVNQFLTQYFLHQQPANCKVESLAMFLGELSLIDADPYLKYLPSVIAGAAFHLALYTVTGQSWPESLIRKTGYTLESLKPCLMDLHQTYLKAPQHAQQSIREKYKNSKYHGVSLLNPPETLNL

Chain of cyclin D1 (P24385 whole entry): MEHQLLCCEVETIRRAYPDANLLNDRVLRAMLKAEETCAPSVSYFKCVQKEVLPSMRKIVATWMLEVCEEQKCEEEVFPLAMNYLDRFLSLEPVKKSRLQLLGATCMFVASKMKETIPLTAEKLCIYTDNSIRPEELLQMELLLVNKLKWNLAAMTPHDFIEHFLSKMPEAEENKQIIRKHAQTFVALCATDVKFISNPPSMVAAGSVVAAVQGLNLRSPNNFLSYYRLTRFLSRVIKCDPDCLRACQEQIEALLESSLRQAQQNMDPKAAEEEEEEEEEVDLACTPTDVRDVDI

Binder: SA[code U]RNLFG [p27 SAURNLFG]
IC50 (cyclin D1): > 200 µM

B1: GST-pRb(772-928) (protein)
chain: ASTRPPTLSPIPHIPRSPYKFPSSPLRIPGGNIYISPLKSPYKISEGLPTPTKMTPRSRILVSIGESFGTSEKFQKINQMVCNSDRVLKRSAEGSNPPKPLKKLRFDIEGSDEADGSKHLPGESKFQQKLAEMTSTRTRMQKQKMNDSMDTSNKEEK
IC50 (cyclin A): 9 µM

Continued by falling IC50 (cyclin D1), values first:

IC50 (cyclin D1): 134 µM
Binder: KA[code U]RRLFG [p21 N-terminus KAURRLFG]

IC50 (cyclin D1): 20 µM
Binder: KA[code U]RRLIF [KAURRLIF]
